The labels stand for the following.
B1: CPEB3 Ribozyme (parent)
chain: GGGGGCCACAGCAGAAGCGUUCACGUCGCGGCCCCUGUCAGAUUCUGGUGAAUCUGCGAAUUCUGCUGU

In this data set the parent is B1. The data set can be described thus: self-cleavage, relative activity (ratio to wild type); higher = more cleavage; co-transcriptional.
As to GGGGGCCACGGCAGAAGCGUUCACGUCGCGUCCCCUGUCAGAUUCUGGUGAAUCUGCGAAUUCUGCUGU, the self-cleavage was 0.868.

As to GGGGGCCACGGCAGAAGCGUUCACGUCGCGACCCCUGUCAGAUUCUGGUGAAUCUGCGAAUUCUGCUGU, the self-cleavage was found to be 0.953. For the variant GGGGGCCACGGCAGAAGCGUUUACGUCGCGGCCCCUGUCAGAUUCUGGUGAAUCUGCGAAUUCUGCUGU, the self-cleavage was 0.23. Regarding GGGGGCCACGGCAGAAGCGUUGACGUCGCGGCCCCUGUCAGAUUCUGGUGAAUCUGCGAAUUCUGCUGU, the self-cleavage came out at 0.145. With GGGGGCCACGACAGAAGCGUUCACGUCGCGGCCCCUGUCAGAUUCUGGUGAAUCUGCGAAUUCUGCUGU the figure was 0.143; with GGGGGCCACGCCAGAAGCGUUCACGUCGCGGCCCCUGUCAGAUUCUGGUGAAUCUGCGAAUUCUGCUGU, 0.79; with GGGGGCCACGUCAGAAGCGUUCACGUCGCGGCCCCUGUCAGAUUCUGGUGAAUCUGCGAAUUCUGCUGU, 0.743.

For GGGGGCCACGGCAAAAGCGUUCACGUCGCGGCCCCUGUCAGAUUCUGGUGAAUCUGCGAAUUCUGCUGU, the self-cleavage is 0.195. With GGGGGCCACGGCAUAAGCGUUCACGUCGCGGCCCCUGUCAGAUUCUGGUGAAUCUGCGAAUUCUGCUGU the figure was 0.12. Consider GGGGGCCACGGCAGAAACGUUCACGUCGCGGCCCCUGUCAGAUUCUGGUGAAUCUGCGAAUUCUGCUGU, for which the self-cleavage came to 0.132. With GGGGGCCACGGCAGAAUCGUUCACGUCGCGGCCCCUGUCAGAUUCUGGUGAAUCUGCGAAUUCUGCUGU the figure was 0.106; with GGGGGCCACGGCAGAAGCGUUCACGUCGCGGCACCUGUCAGAUUCUGGUGAAUCUGCGAAUUCUGCUGU, 0.926. For the variant GGGGGCCACGGCAGAAGCAUUCACGUCGCGGCCCCUGUCAGAUUCUGGUGAAUCUGCGAAUUCUGCUGU, the self-cleavage amounted to 0.157.

Turning to GGGGGCCACGGCAGAAGCUUUCACGUCGCGGCCCCUGUCAGAUUCUGGUGAAUCUGCGAAUUCUGCUGU, the self-cleavage is 0.162. For GGGGGCCACGGCAGAAGCCUUCACGUCGCGGCCCCUGUCAGAUUCUGGUGAAUCUGCGAAUUCUGCUGU, the self-cleavage came to 0.104. As for GGGGGCCACGGCAGAAGCGUUCACCUCGCGGCCCCUGUCAGAUUCUGGUGAAUCUGCGAAUUCUGCUGU, the figure is 0.125. Consider GGGGGCCACGGCAGAAGCGUUCACGUCGCGGCCCCUGUCAGAUUCUGGUGACUCUGCGAAUUCUGCUGU, for which the self-cleavage came out at 0.776. As for GGGGGCCACGGCAGAAGCGUUCACGUCGCGGCCCCUGUCAGAUUCUGGUGAUUCUGCGAAUUCUGCUGU, the figure is 0.834; as for GGGGGCCACGGCAGAAGCGUCCACGUCGCGGCCCCUGUCAGAUUCUGGUGAAUCUGCGAAUUCUGCUGU, 0.619.

Regarding GGGGGCCACGGCAGAAGCGUACACGUCGCGGCCCCUGUCAGAUUCUGGUGAAUCUGCGAAUUCUGCUGU, the self-cleavage is 0.83.

Regarding GGGGGCCACGGCAGAAGCGUGCACGUCGCGGCCCCUGUCAGAUUCUGGUGAAUCUGCGAAUUCUGCUGU, the self-cleavage was determined as 0.39.

In the case of GGGGGCCACGGCAGAAGCGGUCACGUCGCGGCCCCUGUCAGAUUCUGGUGAAUCUGCGAAUUCUGCUGU, the self-cleavage worked out at 0.135. Consider GGGGGCCACGGCAGAAGCGCUCACGUCGCGGCCCCUGUCAGAUUCUGGUGAAUCUGCGAAUUCUGCUGU, for which the self-cleavage was 0.115. With GGGGGCCACGGCAGAAGCGUUCACGUCGCGGCCCCUGUCAGAUUCUGGUGAAUCUCCGAAUUCUGCUGU, the self-cleavage was 0.473.

GGGGGCCACGGCAGAAGCGUUCACGUCGCGGCCCCUGUCAGAUUCUGGUGAAUCUACGAAUUCUGCUGU: the self-cleavage came out at 0.784. In the case of GGGGGCCACGGCAGAAGCGUUCACGUCGCGGCCCCUGUCAGAUUCUGGUGAAUCUUCGAAUUCUGCUGU, the self-cleavage came out at 0.567.

In the case of GGGGGCCACGGCAGAAGCGUUCACGUCGCGGCCCCUGUCAGAUUUUGGUGAAUCUGCGAAUUCUGCUGU, the self-cleavage worked out at 0.901.

Take GGGGGCCACGGCAGAAGCGUUCACGUCGCGGCCCCUGUCAGAUUAUGGUGAAUCUGCGAAUUCUGCUGU: the self-cleavage is 0.784. GGGGGCCACGGCAGAAGCGUUCACGUCGCGGGCCCUGUCAGAUUCUGGUGAAUCUGCGAAUUCUGCUGU: the self-cleavage stood at 0.762. As to GGGGGCCACGGCAGAAGCGUUCACGUCGCGGCCCCUGUCAGAUUCUAGUGAAUCUGCGAAUUCUGCUGU, the self-cleavage was 0.986. With GGGGGCCACGGCAGAAGCGUUCACGUCGCGGCCCCUGUCAGAUUCUCGUGAAUCUGCGAAUUCUGCUGU the figure was 0.927. As for GGGGGCCACGGCAGAAGCGUUCACGUCGCGGCCCCAGUCAGAUUCUGGUGAAUCUGCGAAUUCUGCUGU, the figure is 0.117; as for GGGGGCCACGGCAGAAGCGUUCACGUCGCGGCCCCCGUCAGAUUCUGGUGAAUCUGCGAAUUCUGCUGU, 0.761; as for GGGGGCCACGGCAGAAGCGUUCACGUCGCGGCCCCUGUCAGAUUCUGGUGAAUCUGCGAAUUCUGCUUU, 0.917.

As for GGGGGCCACGGCAGAAGCGUUCACGUCGCGGCCCCUGUCAGAUUCUGGUGAAUCUGCGAAUUCUGCUCU, the self-cleavage turned out to be 0.941. With GGGGGCCACGGCAGAAGCGUUCACGUCGCGGCCCCUGUCAGAUUCUGGUGAAUCUGCGAAUUCUGCUAU the figure was 0.943; with GGGGGCCACGGCAGAAGCGUUCACGUCGCGGCCCCUGUGAGAUUCUGGUGAAUCUGCGAAUUCUGCUGU, 0.595; with GGGGGCCACGGCAGAAGCGUUCACGUCGCGGCCCCUGUAAGAUUCUGGUGAAUCUGCGAAUUCUGCUGU, 0.42.

In the case of GGGGGCCACGGCAGAAGCGUUCACGUCGCGGCCCCUGUUAGAUUCUGGUGAAUCUGCGAAUUCUGCUGU, the self-cleavage stood at 0.633.
